The text below walks through data of article PMC3493480.

The target of test [1] is bromodomain protein 4 (Brd4), endogenous (human (endogenous in C33A and 293T)) (UniProt O60885).
For test [2] the target is unchanged. The source holds these as a separate data set.
The target is the same in test [3]. The test is described as follows: co-IP; nuclear extracts of transfected C33A or 293T cells IPed with polyclonal Brd4 antibody (NA or CA) or normal rabbit IgG, immunoblot; immuno-complexes unchanged at 300 mM NaCl, only slightly dissociated at 500 and 1000 mM. For orientation: A western blot detects proteins with antibodies after separation by electrophoresis.

Substance “MCV large T antigen (LT) expressed from pADL* (natural protein)” displayed a replication of the MCV genome (LT expressed from the viral genome) in 293T cells co-transfected with 0, 7 or 9 µg pcDNA4C-Brd4 471-730, DpnI-resistant DNA by Southern blotting at 24 h: inhibition in test [1] of 92%. In test [2], this substance came in with an MCV episome copy number by qPCR in 293-4T cells (stably expressing MCV LT and sT) super-transfected with the Brd4 471-730 DNI construct, 24 h to 4 days: reduction (∼60% within the first 24 h) of 94%. The substance further showed a percent of the MCV LT co-immunoprecipitated in test [3] of 20%.
As for “MCV large T antigen (LT), Xpress-tagged, from pcDNA4C-MCV LT (natural protein)”, in test [3], the percent of the MCV LT co-immunoprecipitated stood at 40%.
